Target: T1, recombinant mouse sIL-6Ra (20-357) (mouse, UniProt P22272 20-357)
T1 construct: range 20-357; The CD33 part of the plasmid name is not explained; also called recombinant sIL-6Ra; recombinant soluble IL-6Ra
T1 sequence: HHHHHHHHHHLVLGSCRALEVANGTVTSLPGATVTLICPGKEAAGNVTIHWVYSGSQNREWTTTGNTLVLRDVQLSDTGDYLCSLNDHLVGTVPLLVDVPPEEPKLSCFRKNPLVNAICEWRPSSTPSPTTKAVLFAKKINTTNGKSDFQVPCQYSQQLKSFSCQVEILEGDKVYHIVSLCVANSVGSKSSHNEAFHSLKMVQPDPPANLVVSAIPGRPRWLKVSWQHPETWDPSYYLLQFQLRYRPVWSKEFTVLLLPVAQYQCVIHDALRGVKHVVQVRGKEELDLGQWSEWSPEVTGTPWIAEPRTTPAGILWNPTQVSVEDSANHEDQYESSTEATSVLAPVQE
Assay: SPR (Biacore), sIL-6Ra (20-357) amine-coupled to CM5 chip, antibody as analyte, 1:1 Langmuir fit
Protocol: The antigen-antibody affinity of four antibodies (rAb #22, rAb #52, rAb #62, a rat mAb RB01) were determined by an analysis service employing a surface plasmon resonance technology (Beijing Xtalbio Ltd. Co). It started with a directly immobilization of recombinant mouse sIL-6Ra (20-357) on a CM5 S sensor chip using Biacore® S200 machine. Approximately 27.8 resonance units (RU) of the sIL-6Ra (20-357) were immobilized at 25° C. with an amine coupling kit following the standard amine coupling procedure. The remaining active sites on the sensor chip were blocked with 1 M ethanolamine-HCl solution, pH 8.5 at a flow rate of 10 μL/min for 7 min, to finally reach 27.8 RU. The flow cells were washed with the injection of HBS-EP running buffer at 30 μL/min. For each antibody, a 2-fold serial dilution (0, 0.39 nM-200 nM) was injected at 15° C. to a channel with a flow rate of 30 μL/min for 120s and dissociation was followed for 720s. The curves were locally fitted with Biacore®8K analysis software (BIAevaluation) using a 1:1 Langmuir binding model.

Kd: 9.43 pM
B1: rAb #52 (antibody, V domains shown)
VH: QSLEESGGDLVKPGASLTLACTASGFSFSSGYYMCWVRQAPGKGLEWIGCIYTGSDTTYYASWAKGRFTISETSSTAATLQMTSLTAADTATYFCARDLGSRGNLWGPGTLVTVSS
VL: DIVMTQTPSSVSAAVGDTVTINCQASENIYSFLTWYQQKPGQRPKLLIYRASTLASGVPSRFKGSGSGTDFTLTISDLECADAATYYCQRNAYSSWAFGGGTEVVVK
notes: also called Antibody 52; recombinant rabbit monoclonal antibody from fusion clone #52
